Measured values taken from US20180171001A1.

B1: γ4κ3 (antibody, V domains shown)
VH: QIHLVQSGTEVKKPGSSVTVSCKAYGVNTFGLYAVNWVRQAPGQSLEYIGQIWRWKSSASHHFRGRVIISAVDLTGSSPPISPLEIKNLTSDDTAVYFCTTTSTSDRWSGLHHDGVMAFSSWGQGTLISVSA
VL: DIQMTQSPSTLSASIGDTVRISCRASQSITGNWLAWYHQRPGKAPRLLIYRGSRLLGGVPSRFSGSAAGTDFTLTIANLQAEDFGTFYCQQYDTYPGTFGQGTKVEVKR
B2: γ15κ18 (antibody, V domains shown)
VH: QIHLVQSGTEVKKPGSSVTVSCKAYGVNTFGLYAVNWVRQAPGQSLEYIGQIWRWKSSASHHFRGRVIISAVDLTGSSPPISSLEIKNLTSDDTAVYFCTTASTYDKWSGLHHDGVMAFSSWGQGTLISVSA
VL: DIQMTQSPSTLSASVGDTVRISCRASQSITGGWLAWYHQRPGKAPRLLIYRGSRLLGGVPSRFSGSAAGADFTLTIANLQAEDFGTFYCQQYDTYPGTFGQGTKVEVKR
B3: γ52κ3 (antibody, V domains shown)
VH: QIHLVQSGTEVKKPGSSVTVSCKAYGVNTFGLYAVNWVRQAPGQSLEYIGQIWRWKSSASHHFRGRVLISAVDLTGSSPPISSLEIKNLTSDDTAVYFCTTTSTYDRWSGLHHDGVMAFSSWGQGTLISVSA
VL: DIQMTQSPSTLSASIGDTVRISCRASQSITGNWLAWYHQRPGKAPRLLIYRGSRLLGGVPSRFSGSAAGTDFTLTIANLQAEDFGTFYCQQYDTYPGTFGQGTKVEVKR
B4: γ8κ3 (antibody, V domains shown)
VH: QIHLVQSGTGVKKPGSSVTVSCKAYGVNTFGLYAVNWVRQAPGQGLEYIGQIWRWKSSASHHFRGRVLISAVDLTGSSPPITSLEIKNVTSDDTAVYFCTTTSTYDKWSGLYHDGVMAFSSWGQGTLISVSA
VL: DIQMTQSPSTLSASIGDTVRISCRASQSITGNWLAWYHQRPGKAPRLLIYRGSRLLGGVPSRFSGSAAGTDFTLTIANLQAEDFGTFYCQQYDTYPGTFGQGTKVEVKR
B5: γ22κ3 (antibody, V domains shown)
VH: QIHLVQSGTEVKKPGSSVTVSCKAYGVNTFGLYAVNWVRQAPGQSLEYIGQIWRWKSSASHHFRGRVLISAVDLTGPSPPISSLEIKNLTSDDTAVYFCTTTSTYDKWSGLHHDGVMAFSSWGQGTLISVSA
VL: DIQMTQSPSTLSASIGDTVRISCRASQSITGNWLAWYHQRPGKAPRLLIYRGSRLLGGVPSRFSGSAAGTDFTLTIANLQAEDFGTFYCQQYDTYPGTFGQGTKVEVKR
B6: 8ANC3040 (antibody, V domains shown)
VH: QIHLVQSGTEVKKPGSSVTVSCKAYGVNTFGLYAVNWVRQAPGQSLEYIGQIWRWKSSASHHFRGRVLISAVDLTGSSPPISSLEIKNLTSDDTAVYFCTTTSTYDQWSGLHHDGVMAFSSWGQGTLISVSA
VL: DIQMTQSPSTLSASIGDTVRISCRASQSITGNWVAWYQQRPGKAPRLLIYRGAALLGGVPSRFSGSAAGTDFTLTIGNLQAEDFGTFYCQQYDTYPGTFGQGTKVEVKR
B7: γ46κ5 (antibody, V domains shown)
VH: QIHLVQSGTEVKKPGSSVTVSCKAYGVNTFGLYAVNWVRQAPGQGLEYIGQIWRWKSSASHHFRGRVLISAVDLTGSSPPISSLEIKNVTSDDTAVYFCTTTSTYDKWSGLHHDGVVAFSSWGQGTLISVSA
VL: DIQMTQSPSTLSASTGDTVRISCRASQSITGNWVAWYQQRPGKAPRLLIYRGAALLGGVPSRFRGSAAGTDFTLTIGNLQAEDFGTFYCQQYDTYPGTFGQGTKVEVKR
B8: γ20κ3 (antibody, V domains shown)
VH: QIHLVQSGTEVKKPGSSVAVSCKAYGVNTFGLYAVNWVRQAPGQSLEYIGQIWRWKSSASHDFRGRVIISAVDLTGSSPPISSLEIKNLTSDDTAVYFCTATSTPDYWSGLHHDGVMAFSSWGQGTLISVSA
VL: DIQMTQSPSTLSASIGDTVRISCRASQSITGNWLAWYHQRPGKAPRLLIYRGSRLLGGVPSRFSGSAAGTDFTLTIANLQAEDFGTFYCQQYDTYPGTFGQGTKVEVKR
B9: γ8κ11 (antibody, V domains shown)
VH: QIHLVQSGTGVKKPGSSVTVSCKAYGVNTFGLYAVNWVRQAPGQGLEYIGQIWRWKSSASHHFRGRVLISAVDLTGSSPPITSLEIKNVTSDDTAVYFCTTTSTYDKWSGLYHDGVMAFSSWGQGTLISVSA
VL: DIQMTQSPSTLSASVGGTVRISCRASQSITGGWLAWYHQRPGKAPRLLIYRGSRLLGGVPSRFSGSAAGTDFTLTIANLQAEDFGTFYCQQYDTYPGTFGQGTKVEVKR
B10: γ15κ3 (antibody, V domains shown)
VH: QIHLVQSGTEVKKPGSSVTVSCKAYGVNTFGLYAVNWVRQAPGQSLEYIGQIWRWKSSASHHFRGRVIISAVDLTGSSPPISSLEIKNLTSDDTAVYFCTTASTYDKWSGLHHDGVMAFSSWGQGTLISVSA
VL: DIQMTQSPSTLSASIGDTVRISCRASQSITGNWLAWYHQRPGKAPRLLIYRGSRLLGGVPSRFSGSAAGTDFTLTIANLQAEDFGTFYCQQYDTYPGTFGQGTKVEVKR

What was measured:
Assay in all cases: cell-based or functional assay
[1] = molecular target: Env of HIV-1 strain X1254_c3 (HIV-1)
[2] = molecular target: Env of HIV-1 strain 3415.v1.c1 (HIV-1)
[3] = molecular target: Env of HIV-1 strain YU2.DG (HIV-1)
[4] = molecular target: Env of HIV-1 strain H086.8 (HIV-1)
[5] = molecular target: Env of HIV-1 strain ZM53M.PB12 (HIV-1)
[6] = molecular target: Env of HIV-1 strain Du172.17 (HIV-1)
[7] = molecular target: Env of HIV-1 strain 3016.v5.c45 (HIV-1)
[8] = molecular target: Env of HIV-1 strain 231965.c1 (HIV-1)
[9] = molecular target: Env of HIV-1 strain PVO.4 (HIV-1)
[10] = molecular target: Env of HIV-1 strain 251-18 (HIV-1)
[11] = molecular target: Env of HIV-1 strain 250-4 (HIV-1)
[12] = molecular target: Env of HIV-1 strain R1166.c1 (HIV-1)
[13] = molecular target: Env of HIV-1 strain REJO4541.67 (HIV-1)
[14] = molecular target: Env of HIV-1 strain ZM109F.PB4 (HIV-1)
[15] = molecular target: Env of HIV-1 strain 3365.v2.c20 (HIV-1)
[16] = molecular target: Env of MuLV

Row | Binder | neutralization IC50 [1] | neutralization IC50 [2] | neutralization IC50 [3] | neutralization IC50 [4] | neutralization IC50 [5] | neutralization IC50 [6] | neutralization IC50 [7] | neutralization IC50 [8] | neutralization IC50 [9] | neutralization IC50 [10] | neutralization IC50 [11] | neutralization IC50 [12] | neutralization IC50 [13] | neutralization IC50 [14] | neutralization IC50 [15] | neutralization IC50 [16]
1 | B1 | 18 µg/mL | > 15 µg/mL | > 15 µg/mL | > 15 µg/mL | > 15 µg/mL | > 15 µg/mL | > 15 µg/mL | > 15 µg/mL | > 15 µg/mL | > 15 µg/mL | > 15 µg/mL | > 15 µg/mL | > 15 µg/mL | > 15 µg/mL | > 15 µg/mL | 
2 | B2 | 2.85 µg/mL | > 15 µg/mL | 1.17 µg/mL | > 15 µg/mL | > 15 µg/mL | > 15 µg/mL | 0.664 µg/mL | 1.49 µg/mL | 1.59 µg/mL | > 15 µg/mL | > 15 µg/mL | 1.99 µg/mL | > 15 µg/mL | > 15 µg/mL | > 15 µg/mL | 
3 | B3 | > 15 µg/mL | > 15 µg/mL | 5.75 µg/mL | > 15 µg/mL | > 15 µg/mL | > 15 µg/mL | 3.05 µg/mL | 6.59 µg/mL | 1.92 µg/mL | 14.5 µg/mL | > 15 µg/mL | 23.4 µg/mL | > 15 µg/mL | > 15 µg/mL | > 15 µg/mL | > 30 µg/mL
4 | B4 | 4.01 µg/mL | > 15 µg/mL | 5.41 µg/mL | > 15 µg/mL | > 15 µg/mL | > 15 µg/mL | 2.38 µg/mL | 3.48 µg/mL | > 15 µg/mL | > 15 µg/mL | > 15 µg/mL | 7.6 µg/mL | > 15 µg/mL | > 15 µg/mL | > 15 µg/mL | > 18 µg/mL
5 | B5 | > 15 µg/mL | > 15 µg/mL | > 15 µg/mL | > 15 µg/mL | > 15 µg/mL | > 15 µg/mL | > 15 µg/mL | > 15 µg/mL | > 15 µg/mL | > 15 µg/mL | > 15 µg/mL | > 15 µg/mL | > 15 µg/mL | > 15 µg/mL | > 15 µg/mL | 
6 | B6 | 2.91 µg/mL | 3.06 µg/mL | 0.617 µg/mL |  | 14.9 µg/mL |  | 0.427 µg/mL | 1.17 µg/mL | 0.284 µg/mL | 0.571 µg/mL |  | 2.37 µg/mL | 0.198 µg/mL |  | > 25 µg/mL | > 30 µg/mL
7 | B7 | 1.79 µg/mL | > 15 µg/mL | 0.553 µg/mL | 1.75 µg/mL | 12.4 µg/mL | > 15 µg/mL | 0.111 µg/mL | 0.525 µg/mL | 0.129 µg/mL | 0.609 µg/mL | > 15 µg/mL | 0.922 µg/mL | 0.196 µg/mL | > 15 µg/mL | > 15 µg/mL | 
8 | B8 | 14.7 µg/mL | > 15 µg/mL | > 15 µg/mL | > 15 µg/mL | > 15 µg/mL | > 15 µg/mL | > 15 µg/mL | > 15 µg/mL | > 15 µg/mL | > 15 µg/mL | > 15 µg/mL | > 15 µg/mL | > 15 µg/mL | > 15 µg/mL | > 15 µg/mL | > 21 µg/mL
9 | B9 | 4.14 µg/mL | > 15 µg/mL | 9.35 µg/mL | > 15 µg/mL | > 15 µg/mL | > 15 µg/mL | 2.46 µg/mL | 2.49 µg/mL | 8.16 µg/mL | > 15 µg/mL | > 15 µg/mL | 3.88 µg/mL | > 15 µg/mL | > 15 µg/mL | > 15 µg/mL | 
10 | B10 | 3.49 µg/mL | > 15 µg/mL | 1.07 µg/mL | > 15 µg/mL | > 15 µg/mL | > 15 µg/mL | 1.26 µg/mL | 1.61 µg/mL | 5.32 µg/mL | > 15 µg/mL | > 15 µg/mL | 3.94 µg/mL | > 15 µg/mL | > 15 µg/mL | > 15 µg/mL | > 30 µg/mL
